Like-named read-outs stand apart in the source and are kept apart here.
What was measured:
[1] = O-GlcNAc at S355
Flag Western blot = conditions: glycan lost; control: Gli2-WT
[2] = cycloheximide chase, Flag Western blot; conditions: glycan lost

Protein | degradation_or_half_life [1] | expression_or_secretion [1] | expression_or_secretion (Flag Western blot) | degradation_or_half_life ([2]; control: Gli2-WT) | degradation_or_half_life, half_life ([2]; control: PM without OSMI)
Gli2: S355A (protein) parent chain: METSAPAPALEKKEAKSGLLEDSSFPDPGKKACPLAVAAAVAAHGVPQQLLPAFHAPLPIDMRHQEGRYHYDPHSVHSVHGPPTLSGSPVISDISLIRLSPHPAGPGESPFSAHHPYVNPHMEHYLRSVHSSPTLSMISAARGLSPADVAHEHLKERGLFSLAAPGTNPSDYYHQMTLMASHPTPYGDLLMQSGGAASAPHLHDYLNPVDASRFSSPRVTPRLSRKRALSISPLSDASLDLQRMIRTSPNSLVAYINNSRSSSAASGSYGHLSAGALSPAFTFPHPINPVAYQQILSQQRGLGSAFGHTPPLIQPSPTFLAQQPMTLTSISTMPTQLSSSSSNCLNDANQNKQNSESAVSSTVNPITIHKRSKVKTEAEGLRPASPLGLTQEQLADLKEDLDRDDCKQEAEVVIYETNCHWADCTKEYDTQEQLVHHINNEHIHGEKKEFVCRWQACTREQKPFKAQYMLVVHMRRHTGEKPHKCTFEGCSKAYSRLENLKTHLRSHTGEKPYVCEHEGCNKAFSNASDRAKHQNRTHSNEKPYICKIPGCTKRYTDPSSLRKHVKTVHGPDAHVTKKQRNDVHVRAPLLKENGDNEASAEPGGRGPEESVEASSTSHTVEDCLHIKAIKTESSGLCQSSPGAQSSCSSEPSPLGSAPNNDSGMEMPGTGPGSLGDLTALADTCPGADTSALAAPSTGGLQLRKHMSTVHRFEQLKREKLKSLKDSCSWAGPAPHTRNTKLPPLPVNGSVLENFNNTGGGGPAGLLPSQRLPELTEVTMLSQLQERRDSSTSTMSSAYTVSRRSSGISPYFSSRRSSEASPLGGLRPHNASSADSYDPISTDASRRSSEASQCSGGGPGLLNLTPAQQYNLRAKYAAATGGPPPTPLPGLDRVSLRTRLALLDAPERALPGACPHPLGPRRGSDGPTYSHGHGHGYAGAAPAFPHEGPNSSTRRASDPVRRPDPLILPRVQRFHSTHNMNPGSLPPCADRRGLHVQSHPSVDSNLTRNAYSPRPPSINENVVMEAVAAGVDGPGLECDLGLVEDELVLPDDVVQYIKAHTGGTLDDGIRQGYPTEGTGFPENSKLPSPGLQGHRRLAAADSNMGPSAPGLGGCQLSYSPSSNLNKSNMPVQWNEVSSGTVDALPTQVKPPPFPHSNLAVVQQKPAFGQYPGYNPQSVQSSSGGLDSTQPHLQLRGAPSASRGSYTQQPRQPAAGSQCLGMSAAMSPQASYSQAHPQLSPNIVSGSLNQFSPSCSNMAAKPSHLGLPQQMEVVPNATIMNGHQREHGVPNSSLAAVSQPHPVLSYPQQDSYQQGSNLLSSHQPGFMESQQNAGFGLMQPRPPLEPNTASRHRGVRSGQQQLYARTTGQAMVTSANQETAEAMPKGPAGTMVSLAPQPSQDTGRAQDQNTLYYYGQIHMYEQNGGCPAVQPQPPQPQACSDSIQPEPLPSPGVNQVSSTVDSQLLEPPQIDFDAIMDDGDHSSLFSGALSPTLLHNLSQNSSRLTTPRNSLTLPSIPAGISNMAVGDMSSMLTSLAEESKFLNMMT | decreases | decreases | decreases | decreases | 
Gli2: OSMI (protein) parent chain: METSAPAPALEKKEAKSGLLEDSSFPDPGKKACPLAVAAAVAAHGVPQQLLPAFHAPLPIDMRHQEGRYHYDPHSVHSVHGPPTLSGSPVISDISLIRLSPHPAGPGESPFSAHHPYVNPHMEHYLRSVHSSPTLSMISAARGLSPADVAHEHLKERGLFSLAAPGTNPSDYYHQMTLMASHPTPYGDLLMQSGGAASAPHLHDYLNPVDASRFSSPRVTPRLSRKRALSISPLSDASLDLQRMIRTSPNSLVAYINNSRSSSAASGSYGHLSAGALSPAFTFPHPINPVAYQQILSQQRGLGSAFGHTPPLIQPSPTFLAQQPMTLTSISTMPTQLSSSSSNCLNDANQNKQNSESAVSSTVNPITIHKRSKVKTEAEGLRPASPLGLTQEQLADLKEDLDRDDCKQEAEVVIYETNCHWADCTKEYDTQEQLVHHINNEHIHGEKKEFVCRWQACTREQKPFKAQYMLVVHMRRHTGEKPHKCTFEGCSKAYSRLENLKTHLRSHTGEKPYVCEHEGCNKAFSNASDRAKHQNRTHSNEKPYICKIPGCTKRYTDPSSLRKHVKTVHGPDAHVTKKQRNDVHVRAPLLKENGDNEASAEPGGRGPEESVEASSTSHTVEDCLHIKAIKTESSGLCQSSPGAQSSCSSEPSPLGSAPNNDSGMEMPGTGPGSLGDLTALADTCPGADTSALAAPSTGGLQLRKHMSTVHRFEQLKREKLKSLKDSCSWAGPAPHTRNTKLPPLPVNGSVLENFNNTGGGGPAGLLPSQRLPELTEVTMLSQLQERRDSSTSTMSSAYTVSRRSSGISPYFSSRRSSEASPLGGLRPHNASSADSYDPISTDASRRSSEASQCSGGGPGLLNLTPAQQYNLRAKYAAATGGPPPTPLPGLDRVSLRTRLALLDAPERALPGACPHPLGPRRGSDGPTYSHGHGHGYAGAAPAFPHEGPNSSTRRASDPVRRPDPLILPRVQRFHSTHNMNPGSLPPCADRRGLHVQSHPSVDSNLTRNAYSPRPPSINENVVMEAVAAGVDGPGLECDLGLVEDELVLPDDVVQYIKAHTGGTLDDGIRQGYPTEGTGFPENSKLPSPGLQGHRRLAAADSNMGPSAPGLGGCQLSYSPSSNLNKSNMPVQWNEVSSGTVDALPTQVKPPPFPHSNLAVVQQKPAFGQYPGYNPQSVQSSSGGLDSTQPHLQLRGAPSASRGSYTQQPRQPAAGSQCLGMSAAMSPQASYSQAHPQLSPNIVSGSLNQFSPSCSNMAAKPSHLGLPQQMEVVPNATIMNGHQREHGVPNSSLAAVSQPHPVLSYPQQDSYQQGSNLLSSHQPGFMESQQNAGFGLMQPRPPLEPNTASRHRGVRSGQQQLYARTTGQAMVTSANQETAEAMPKGPAGTMVSLAPQPSQDTGRAQDQNTLYYYGQIHMYEQNGGCPAVQPQPPQPQACSDSIQPEPLPSPGVNQVSSTVDSQLLEPPQIDFDAIMDDGDHSSLFSGALSPTLLHNLSQNSSRLTTPRNSLTLPSIPAGISNMAVGDMSSMLTSLAEESKFLNMMT | decreases, PM extended half-life from approximately 6 to 24 h; OSMI eliminated this |  |  |  | decreases
